Our source for the percent of cells positive values is US20120282257A1.

Assay [1] has as its target human CD99 on live/intact cells (human) (UniProt P14209). Briefly: flow cytometry, live TC-71 cells (Ewing sarcoma). In general terms: Flow cytometry measures light scatter and fluorescence of single cells or particles in a stream.
The target is the same in assay [2]. Briefly: flow cytometry, live SKES-1 cells (Ewing sarcoma).
Assay [3] shares this target. Briefly: flow cytometry, live RM-82 cells (Ewing sarcoma).
Assay [4] shares this target. Briefly: flow cytometry, live MOS cells (osteosarcoma).
Assay [5] has the same target. The assay can be described thus: flow cytometry, live H-825 cells (Ewing sarcoma).
For assay [6] the target is unchanged. The assay can be described thus: flow cytometry, live MG-63 cells (osteosarcoma).
The target is the same in assay [7]. The assay can be described thus: flow cytometry, live HSSC163 cells (mesenchymal).
Assay [8] shares this target. Briefly: flow cytometry, live U2-OS cells (osteosarcoma).
Assay [9] shares this target. The assay can be described thus: flow cytometry, live RD-ES cells (Ewing sarcoma).
For assay [10] the target is unchanged. Briefly: flow cytometry, live HSSC168 cells (mesenchymal).
Assay [11] shares this target. The assay can be described thus: flow cytometry, live IOR/OS7 cells (osteosarcoma).
Assay [12] shares this target. Briefly: flow cytometry, PBMC.

Sequence of UniProt P14209 (P14209 23-185): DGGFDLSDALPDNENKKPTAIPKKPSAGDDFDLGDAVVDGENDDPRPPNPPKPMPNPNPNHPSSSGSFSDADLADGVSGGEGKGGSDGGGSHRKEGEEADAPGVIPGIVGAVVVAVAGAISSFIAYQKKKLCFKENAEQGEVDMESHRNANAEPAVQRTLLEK

As for mAbO13 (antibody), the percent of cells positive in assay [1], in [2], in assay [3], in assay [4], in assay [5] and in [6] was 75 to 100% throughout. The percent of cells positive in [7] is 50 to 75%; in [8], 50 to 75%; in [9], 75 to 100%; in assay [10], 75 to 100%; in [11] it was 75 to 100%; in assay [12], 75 to 100%.
